The text below walks through data of the supplement of paper PMC12042874.

± gives the uncertainty stated by the source.

This data set is described as follows: amyloid nucleation score (Sup35N fusion, yeast selection) (log enrichment); library NNK1; higher = more nucleation; inactive = no reads after selection. The method in brief: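 The nucleation score equals the log enrichment of output over input reads from DiMSum, centred on the mode score of non-aggregating sequences. It was computed only for sequences with 100 or more input reads. The reads came from Illumina sequencing of plasmid inserts from psi-negative yeast expressing Sup35N fused to peptides of 20 random codons, induced with 100 μM copper sulfate for 24 hours and grown 7 days at 30°C without adenine and uracil.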
In turn, STILPIGWNFDCCITISSCV had an amyloid nucleation score of 0.372 ± 0.28.

STMFYLIFCQCTSIYANLYQ yielded an amyloid nucleation score of 0.063 ± 0.41.

With STPAVDALRYCMTSIAFRKI, the amyloid nucleation score was -1.11 ± 0.58.

As to STRHPTKNR, the amyloid nucleation score turned out to be 0.823 ± 0.21.

Take STRSLSCLFLNRTSHCLGTL: the amyloid nucleation score is -0.721 ± 1.4.

STVREFSVVGPYVTGSVAGR returned an amyloid nucleation score of 0.383 ± 0.71.

Regarding STYPLEEYKGSGCLAG, the amyloid nucleation score is -0.522 ± 0.39.

As to SVANGALSRLAYIKRYRVWW, the amyloid nucleation score is 0.522 ± 0.45.

Substance SVARFNVWVVLSSRNVTCQS came in with an amyloid nucleation score of 1.82 ± 0.12.

In the case of SVDNMVGVTGSFGGARVILS, the amyloid nucleation score is -0.237 ± 0.39.

In the case of SVDVTRIIMIVVCRFKMWEL, the amyloid nucleation score amounted to 0.736 ± 0.32.

Substance SVESYTKAISIYTIGERIVL displayed an amyloid nucleation score of -0.004 ± 1.6.

Substance SVFELLCSPQSVNRTFNTPY yielded an amyloid nucleation score of 1.09 ± 0.36.

The substance SVFSLVYGKN came in with an amyloid nucleation score of 0.685 ± 0.81.

SVGLTFNGGVYCSHVERTSW gave an amyloid nucleation score of 1.93 ± 0.19.

SVKRMWYLDV gave an amyloid nucleation score of -0.483 ± 0.32.

As for SVLCELRV, the amyloid nucleation score was -0.182 ± 0.36.

For SVLRRQDFTKLLMFRSGPLG, the amyloid nucleation score was found to be 0.424 ± 0.38.

SVLSSLVSEISGVVCLVLGH: the amyloid nucleation score is -0.214 ± 0.57.

The substance SVNKSSKVFTELANVHERAL had an amyloid nucleation score of 0.136 ± 0.66.

SVNRLTLKPSYAKYRVYSGH yielded an amyloid nucleation score of 0.46 ± 0.68.

Turning to SVNTPTGSIFEICQYDSIKG, the amyloid nucleation score is -0.302 ± 0.45.

Substance SVPMMSML gave an amyloid nucleation score of 0.019 ± 0.25.

The substance SVSEWRQVILIIGVIVK came in with an amyloid nucleation score of -0.278 ± 0.51.

SVSVQERTSGVYSHVSSENY: the amyloid nucleation score was -0.162 ± 0.45.

Consider SVSVSCFVV, for which the amyloid nucleation score result was “inactive”.

Take SVSWYAMLRLSEIRDRCKSF: the amyloid nucleation score is 0.278 ± 0.32.

Substance SVSYVELLGAFIKGLGIIYF returned an amyloid nucleation score of -0.999 ± 0.63.

In the case of SVVFGSSYRNAVGCWTWSQG, the amyloid nucleation score amounted to 0.6 ± 0.4.

The substance SVVFLQRFLDR returned an amyloid nucleation score of -0.564 ± 1.2.

Substance SVVNDFVYRL displayed an amyloid nucleation score of -0.588 ± 0.86.

Take SVVSFINLIASYFRELVGAV: the amyloid nucleation score came to 0.225 ± 0.95.

The substance SVWFWFSKGWFSLCWAFFEK registered an amyloid nucleation score of 0.428 ± 1.2.

SWALRWYPELIET gave an amyloid nucleation score of 0.076 ± 0.29.

SWEQMSYASSFISNVGRHKG had an amyloid nucleation score of 1.34 ± 0.2.

Substance SWGTGVIPMVRNSLRECTEL showed an amyloid nucleation score of -0.388 ± 0.98.

SWIHVHHL: the amyloid nucleation score was 0.691 ± 0.7.

SWMNS gave an amyloid nucleation score of 0.759 ± 0.55.

Substance SWNRGVLESHKHAYFALPQF registered an amyloid nucleation score of 0.417 ± 0.24.

SWNVVFKVPLGLRVLYGYLC registered an amyloid nucleation score of -0.197 ± 0.28.

SWSPRHELPLGKLRWIWDRG gave an amyloid nucleation score of 1.03 ± 0.75.

As for SWSSGGNFARFIQYVPATHA, the amyloid nucleation score is 0.117 ± 0.72.

Consider SWSSVQSAVKGHPLGGNTGR, for which the amyloid nucleation score is -0.72 ± 0.74.

For SWVWCYWILSWIREFLLRQG, the amyloid nucleation score amounted to 0.447 ± 0.42.

SWWLICYYVSWYFSD returned an amyloid nucleation score of -1.69 ± 1.1.

As to SWYCGTASLVAKAVADRAGD, the amyloid nucleation score came to 0.062 ± 0.5.

As for SYAMLCIYVGYFIFLNSRMS, the amyloid nucleation score entry is “inactive”.

As for SYCYKDGWELVLEYLFVNCT, the amyloid nucleation score is 1.21 ± 0.45.

Take SYECVQNRQCAIGGNRSERF: the amyloid nucleation score came to 0.666 ± 0.93.

Regarding SYEVFEIISNCLEY, the amyloid nucleation score is -0.321 ± 0.35.

Turning to SYGDQSVEKSLRSTATPDPQ, the amyloid nucleation score came out at 0.105 ± 0.35.

For SYGLWHMAM, the amyloid nucleation score is -0.232 ± 0.54.

On to SYHSMA, for which the amyloid nucleation score result is “inactive”.

SYILCHWTFGDKGRFPQNYR: the amyloid nucleation score came out at 2.3 ± 0.18.

In turn, SYILEKGLQTAYCVC came in with an amyloid nucleation score of 1.42 ± 0.46.

In turn, SYKGWVGLVLRVETDGNWSR returned an amyloid nucleation score of 2.28 ± 0.13.

SYKSWQ registered an amyloid nucleation score of 0.978 ± 0.43.
